Results taken from patent publication EP1086117B1.

Assays:
[1] = target: human motilin receptor spliced form A (MTL-R1A) (human); test: cell-based or functional assay
[2] = target: human motilin receptor spliced form A (MTL-R1A) (human); test: displacement of [125I] human motilin from crude membranes of MTL-R1A transfected HEK-293/aeq17 cells
[3] = target: human motilin receptor spliced form A (MTL-R1A) (human); test: direct radioligand binding on cell membranes of MTL-R1A transfected cells

“1-13 MTL (from UniProt P12872 26-38) (peptide)” gave an Aequorin Assay (EC50 nM) [1] of 3.8 nM and an IC50 [2] of 0.9 nM.
For “Leu 13 MTL (from UniProt P12872 26-115) (peptide)”, the Aequorin Assay (EC50 nM) [1] was 3.9 nM and the IC50 [2] was 0.2 nM.
Substance “1-11 MTL (from UniProt P12872 26-36) (peptide)” has an Aequorin Assay (EC50 nM) [1] of 138 nM and an IC50 [2] of 127 nM.
“1-19 MTL (from UniProt P12872 26-44) (peptide)” was tested, and the Aequorin Assay (EC50 nM) [1] was 4.1 nM and the IC50 [2] was 0.3 nM.
With “[125I]-Tyr7-human motilin (from UniProt P12872 26-47) (peptide)” the Bmax (fmol/mg protein) [3] was 240 and the Kd [3] was 0.1 nM.
“1-12 MTL (from UniProt P12872 26-37) (peptide)” gave an Aequorin Assay (EC50 nM) [1] of 72 nM and an IC50 [2] of 14 nM.
With “10-22 MTL (from UniProt P12872 35-47) (peptide)” the Aequorin Assay (EC50 nM) [1] was > 10000 nM and the IC50 [2] was 1100 nM.
With “human motilin (MTL) (from UniProt P12872 26-47) (peptide)” the Aequorin Assay (EC50 nM) [1] was 2.1 nM, the bioluminescent response, aequorin assay, 100 nM peptide (fold over background) [1] was > 4 and the IC50 [2] was 0.5 nM.
“canine motilin (from UniProt P19863 1-22) (peptide)” showed an Aequorin Assay (EC50 nM) [1] of 4.4 nM and an IC50 [2] of 0.2 nM.
